Results reported in publication doi:10.1101/2023.04.24.538075 (bioRxiv, 2023).

Biological target: T1, Cdc24-H (S. cerevisiae, UniProt P11433 1-854)
T1 sequence: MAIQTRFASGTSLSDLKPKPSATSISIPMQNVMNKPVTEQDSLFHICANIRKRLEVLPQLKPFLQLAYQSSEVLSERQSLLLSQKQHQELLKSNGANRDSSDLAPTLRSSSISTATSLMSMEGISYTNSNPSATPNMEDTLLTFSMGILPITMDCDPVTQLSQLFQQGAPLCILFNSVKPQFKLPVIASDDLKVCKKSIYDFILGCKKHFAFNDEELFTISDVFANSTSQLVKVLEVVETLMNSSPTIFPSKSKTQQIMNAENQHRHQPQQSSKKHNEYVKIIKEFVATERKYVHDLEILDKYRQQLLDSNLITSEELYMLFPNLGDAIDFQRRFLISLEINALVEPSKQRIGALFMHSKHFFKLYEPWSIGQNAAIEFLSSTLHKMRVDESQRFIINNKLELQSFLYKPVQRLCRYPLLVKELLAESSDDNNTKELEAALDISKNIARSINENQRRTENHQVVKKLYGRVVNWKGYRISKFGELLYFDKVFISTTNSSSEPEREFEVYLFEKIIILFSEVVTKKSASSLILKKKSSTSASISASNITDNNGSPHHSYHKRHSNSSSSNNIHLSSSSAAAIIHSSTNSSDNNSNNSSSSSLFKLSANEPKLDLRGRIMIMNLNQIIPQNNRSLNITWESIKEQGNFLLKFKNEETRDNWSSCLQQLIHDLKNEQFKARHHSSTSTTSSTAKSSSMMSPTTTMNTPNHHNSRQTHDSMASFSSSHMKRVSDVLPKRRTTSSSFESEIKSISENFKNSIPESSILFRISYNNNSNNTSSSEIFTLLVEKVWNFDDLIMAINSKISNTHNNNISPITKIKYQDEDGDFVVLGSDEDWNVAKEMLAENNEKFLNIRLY
Test: pull-down

B1: H-Bem1-F (natural protein)
chain: MLKNFKLSKRDSNGSKGRITSADISTPSHDNGSVIKHIKTVPVRYLSSSSTPVKSQRDSSPKNRHNSKDITSPEKVIKAKYSYQAQTSKELSFMEGEFFYVSGDEKDWYKASNPSTGKEGVVPKTYFEVFDRTKPSSVNGSNSSSRKVTNDSLNMGSLYAIVLYDFKAEKADELTTYVGENLFICAHHNCEWFIAKPIGRLGGPGLVPVGFVSIIDIATGYATGNDVIEDIKSVNLPTVQEWKSNIARYKASNISLGSVEQQQQQSITKPQNKSAKLVDGELLVKASVESFGLEDEKYWFLVCCELSNGKTRQLKRYYQDFYDLQVQLLDAFPAEAGKLRDAGGQWSKRIMPYIPGPVPYVTNSITKKRKEDLNIYVADLVNLPDYISRSEMVHSLFVVLNNGFDREFERDENQNNIKTLQENDTATFATASQTSNFASTNQDNTLTGEDLKLNKKLSDLSLSGSKQAPAQSTSGLKTTKIKFYYKDDIFALMLKGDTTYKELRSKIAPRIDTDNFKLQTKLFDGSGEEIKTDSQVSNIIQAKLKISVHDI
Question: Does B1 bind?
Answer: binds
